Usually Kd stands for the concentration at which binding is half-saturated.

One assay has as its target HLA-A*11:01. The experiment in a line: IEDB peptide-MHC binding, purified MHC/direct/fluorescence; filed as Kd, often an IC50 or EC50 that approximates it; ≥ and ≤ were set here for values at or beyond the usual limits of such assays.
The target in the next assay is HLA-B*58:01. The description is as above. The note with it: source organism: Haemophilus influenzae.
In assay [1] the target is HLA-A*26:01. The assay is described as above. Conditions: source organism: Haemophilus influenzae.
In another assay the target is HLA-B*08:01. Described as above. The note with it: source organism: Haemophilus influenzae.
For a further assay, the target named is HLA-B*07:02. The assay is described as above. The note with it: source organism: Vibrio vulnificus.
The next assay deals with HLA-A*03:01. Described as above.
The target in another assay is HLA-C*12:03. The description is as above. The note with it: source organism: Yersinia pestis Nepal516.
Assay [2] has as its target HLA-A*69:01. The description is as above. Conditions: source organism: Vibrio vulnificus.
A further assay deals with HLA-B*35:01. Described as above. The note with it: source organism: Vibrio vulnificus.
The next assay concerns the target HLA-B*44:02. The assay is described as above. The note with it: source organism: Haemophilus influenzae.
Another assay addresses HLA-A*01:01. Described as above.
For assay [3], the target named is HLA-A*02:01. The description is as above. Conditions: source organism: Vibrio vulnificus.
Another assay has as its target HLA-B*27:05. Described as above. The note with it: source organism: Haemophilus influenzae.
The target in assay [4] is HLA-A*31:01. The assay is described as above. The note with it: source organism: Haemophilus influenzae.
In assay [5] the target is HLA-B*15:01. Described as above. Conditions: source organism: Vibrio vulnificus.
In assay [6] the target is HLA-A*26:01. Nature of the assay: IEDB peptide-MHC binding, purified MHC/competitive/fluorescence; filed as Kd, often an IC50 or EC50 that approximates it; ≥ and ≤ were set here for values at or beyond the usual limits of such assays. The note with it: source organism: Reston ebolavirus.
The target in the next assay is HLA-B*27:03. The assay is described as above. The note with it: source organism: Reston ebolavirus.
The target of the next assay is HLA-B*46:01. The description is as above. Conditions: source organism: Reston ebolavirus.
The target in assay [7] is HLA-A*69:01. Described as above.
Assay [8] deals with HLA-A*02:01. Described as above.
The next assay addresses HLA-B*57:01. Described as above. The note with it: source organism: Reston ebolavirus.
In another assay the target is HLA-B*39:01. The assay is described as above. The note with it: source organism: Reston ebolavirus.
The target of the next assay is HLA-B*51:01. The assay is described as above. The note with it: source organism: Reston ebolavirus.
For a further assay, the target named is HLA-B*18:01. Described as above. Conditions: source organism: Reston ebolavirus.
The target in a further assay is HLA-B*15:17. Described as above. Conditions: source organism: Reston ebolavirus.
In assay [9] the target is HLA-B*15:01. Described as above. The note with it: source organism: Reston ebolavirus.
The target of another assay is HLA-A*29:02. The experiment in a line: IEDB peptide-MHC binding, purified MHC/direct/fluorescence; filed as Kd, often an IC50 or EC50 that approximates it; ≥ and ≤ were set here for values at or beyond the usual limits of such assays. Conditions: source organism: Reston ebolavirus.
In another assay the target is HLA-A*24:03. Described as above.
In a further assay the target is HLA-A*02:12. The description is as above. Conditions: source organism: Reston ebolavirus.
A further assay concerns the target HLA-A*02:03. Described as above. The note with it: source organism: Reston ebolavirus.
The target in assay [10] is HLA-A*02:19. The assay is described as above. The note with it: source organism: Reston ebolavirus.
For the next assay, the target named is HLA-A*02:11. The assay is described as above. Conditions: source organism: Reston ebolavirus.
The target in the next assay is HLA-A*68:02. Described as above. Conditions: source organism: Reston ebolavirus.
Another assay addresses HLA-A*23:01. The description is as above.
The next assay has as its target HLA-B*45:06. Nature of the assay: IEDB peptide-MHC binding, purified MHC/competitive/fluorescence; filed as Kd, often an IC50 or EC50 that approximates it; ≥ and ≤ were set here for values at or beyond the usual limits of such assays. The note with it: source organism: Entamoeba histolytica.
In a further assay the target is HLA-B*83:01. The description is as above. The note with it: source organism: Entamoeba histolytica.
Assay [11] deals with HLA-A*31:01. The description is as above. Conditions: source organism: Entamoeba histolytica.
The target of another assay is HLA-B*15:42. The assay is described as above. The note with it: source organism: Entamoeba histolytica.
The target in the next assay is HLA-A*32:07. Described as above. The note with it: source organism: Entamoeba histolytica.
In the next assay the target is HLA-A*02:16. The description is as above. The note with it: source organism: Human immunodeficiency virus type 1 (Z-84 ISOLATE).
For assay [12], the target named is HLA-A*02:19. The description is as above. Conditions: source organism: Human immunodeficiency virus type 1 (Z-84 ISOLATE).
The target in the next assay is HLA-C*15:02. The experiment in a line: IEDB peptide-MHC binding, purified MHC/direct/fluorescence; filed as Kd, often an IC50 or EC50 that approximates it; ≥ and ≤ were set here for values at or beyond the usual limits of such assays. The note with it: source organism: Human immunodeficiency virus type 1 (Z-84 ISOLATE).
Where [13] appears, read: source organism: Haemophilus influenzae.
The mark [14] stands for this setting: source organism: Reston ebolavirus.
[15] abbreviates: source organism: Vibrio vulnificus CMCP6.
Where [16] appears, read: source organism: Entamoeba histolytica.
Where [17] appears, read: source organism: Human immunodeficiency virus type 1 (Z-84 ISOLATE).

On to IMDEPTSSL, for which the Kd was not below 20 µM with HLA-A*11:01 (setting [13]); not below 20 µM in the assay with HLA-B*58:01; not below 20 µM with HLA-A*26:01 [1]; not below 20 µM with HLA-B*08:01; not below 5 µM in the assay with HLA-B*07:02; not below 20 µM with HLA-A*03:01 (setting [13]). Moreover, the Kd with HLA-C*12:03 is not below 20 µM; with HLA-A*69:01 [2] it was 0.0649 µM; with HLA-B*35:01, 2.07 µM; with HLA-B*44:02, not below 20 µM; with HLA-A*01:01 (source organism: Vibrio vulnificus), 14.3 µM; with HLA-A*02:01 [3], 0.0267 µM. In addition, the Kd with HLA-B*27:05 is not below 20 µM; with HLA-A*31:01 [4], not below 20 µM; with HLA-B*15:01 [5], 0.173 µM.
ITDEINQIK: the Kd with HLA-A*26:01 [6], in the assay with HLA-B*27:03, with HLA-B*46:01, in the assay with HLA-A*69:01 [7] (setting [14]), with HLA-A*02:01 [8] (setting [14]) and with HLA-B*57:01 was not below 20 µM throughout. Besides, the Kd in the assay with HLA-B*39:01, with HLA-B*51:01, with HLA-B*18:01, in the assay with HLA-B*15:17, in the assay with HLA-B*15:01 [9] and with HLA-A*29:02 was not below 20 µM in each case. In addition, the Kd with HLA-A*03:01 (setting [14]), with HLA-A*24:03 (setting [14]), with HLA-A*02:12, in the assay with HLA-A*02:03, in the assay with HLA-A*02:19 [10] and in the assay with HLA-A*01:01 (source organism: Reston ebolavirus - Reston) was not below 20 µM throughout. Further, the Kd in the assay with HLA-A*02:11, in the assay with HLA-A*68:02 and in the assay with HLA-A*23:01 (setting [14]) was not below 20 µM in each case.
Take PYWQGIWDK: the Kd is 0.013 µM with HLA-A*24:03 (setting [15]) and 0.006 µM in the assay with HLA-A*23:01 (setting [15]).
With RMYWGVNPK, the Kd with HLA-B*45:06 was not below 5 µM; with HLA-B*83:01, not below 5 µM; with HLA-A*31:01 [11], not above 0.001 µM; in the assay with HLA-B*15:42 it was not below 5 µM; in the assay with HLA-A*32:07, 0.0139 µM; with HLA-A*11:01 (setting [16]), 0.0016 µM. Besides, the Kd with HLA-A*03:01 (setting [16]) came out at 0.0014 µM.
In the case of YIKIFIMIV, the Kd with HLA-A*02:16, with HLA-A*02:19 [12], in the assay with HLA-A*69:01 [7] (setting [17]), in the assay with HLA-A*02:01 [8] (setting [17]) and with HLA-C*15:02 was not below 20 µM in each case.

These data come from the Immune Epitope Database (IEDB).
